Here are results for 8 molecules from article PMC3761943 (Cell, 2013).

The target in assay [1] is T1, kinesin-4 (human full-length, unlabeled) (human, UniProt O95239 1-1232).
T1 sequence (looked up): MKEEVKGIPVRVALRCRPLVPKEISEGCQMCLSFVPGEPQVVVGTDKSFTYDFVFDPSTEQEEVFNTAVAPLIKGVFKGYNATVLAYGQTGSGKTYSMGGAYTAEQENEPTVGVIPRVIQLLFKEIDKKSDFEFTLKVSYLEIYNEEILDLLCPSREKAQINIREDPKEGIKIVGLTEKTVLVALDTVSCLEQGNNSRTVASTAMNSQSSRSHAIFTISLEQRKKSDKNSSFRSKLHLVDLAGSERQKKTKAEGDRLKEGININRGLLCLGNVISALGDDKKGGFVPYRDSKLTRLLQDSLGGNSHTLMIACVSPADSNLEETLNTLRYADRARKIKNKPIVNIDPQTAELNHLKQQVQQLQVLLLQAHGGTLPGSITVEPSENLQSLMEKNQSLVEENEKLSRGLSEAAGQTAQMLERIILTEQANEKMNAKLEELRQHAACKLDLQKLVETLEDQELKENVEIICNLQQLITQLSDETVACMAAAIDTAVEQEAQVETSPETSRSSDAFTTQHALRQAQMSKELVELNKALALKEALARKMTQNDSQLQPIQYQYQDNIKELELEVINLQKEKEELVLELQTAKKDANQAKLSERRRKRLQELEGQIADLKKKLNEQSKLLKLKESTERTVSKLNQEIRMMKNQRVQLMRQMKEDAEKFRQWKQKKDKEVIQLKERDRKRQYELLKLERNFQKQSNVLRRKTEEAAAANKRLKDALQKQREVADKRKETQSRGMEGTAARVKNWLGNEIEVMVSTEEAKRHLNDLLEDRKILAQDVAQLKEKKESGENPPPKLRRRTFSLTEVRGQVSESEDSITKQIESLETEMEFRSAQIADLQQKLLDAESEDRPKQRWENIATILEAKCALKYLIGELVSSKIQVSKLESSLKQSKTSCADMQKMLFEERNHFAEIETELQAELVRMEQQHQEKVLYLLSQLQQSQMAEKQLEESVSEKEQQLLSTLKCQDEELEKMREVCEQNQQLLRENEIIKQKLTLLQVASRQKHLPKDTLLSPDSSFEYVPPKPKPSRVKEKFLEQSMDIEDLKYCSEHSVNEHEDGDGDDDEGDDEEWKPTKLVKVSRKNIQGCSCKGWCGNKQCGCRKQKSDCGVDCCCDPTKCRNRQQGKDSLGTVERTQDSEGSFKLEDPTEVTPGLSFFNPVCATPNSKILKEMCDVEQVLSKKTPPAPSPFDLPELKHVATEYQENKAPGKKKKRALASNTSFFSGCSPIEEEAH
Nature of the assay: TIRF microscopy, end-tag formation on immobilized microtubules.

In assay [2] the target is T2, kinesin-4ΔN (human kinesin-4, aa 733-1232) (human, UniProt O95239 733-1232).
T2 sequence (looked up): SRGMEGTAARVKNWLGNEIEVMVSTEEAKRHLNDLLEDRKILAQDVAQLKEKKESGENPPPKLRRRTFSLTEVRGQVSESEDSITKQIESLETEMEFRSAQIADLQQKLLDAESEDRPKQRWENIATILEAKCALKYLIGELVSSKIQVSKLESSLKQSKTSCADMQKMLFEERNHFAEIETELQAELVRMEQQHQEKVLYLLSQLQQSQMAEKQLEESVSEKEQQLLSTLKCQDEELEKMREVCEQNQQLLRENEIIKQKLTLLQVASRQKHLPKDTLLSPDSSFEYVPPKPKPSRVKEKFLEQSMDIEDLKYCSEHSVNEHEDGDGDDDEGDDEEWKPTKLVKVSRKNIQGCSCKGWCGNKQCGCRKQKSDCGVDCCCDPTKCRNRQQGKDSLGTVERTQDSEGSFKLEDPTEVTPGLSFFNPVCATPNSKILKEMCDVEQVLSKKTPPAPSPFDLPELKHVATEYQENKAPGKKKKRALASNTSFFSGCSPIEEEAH
Nature of the assay: pull-down.

Assay [3] has as its target T3, kinesin-4-GFP (human full-length kinesin-4, GFP-labeled) (human), O95239.
T3 chain: T1 sequence (looked up)
The assay is described as follows: single-molecule fluorescence intensity analysis. As to conditions: remark: other sources report otherwise.

B1: GFP-PRC1 (human full-length PRC1, aa 1-620, GFP-labeled) (natural protein, UniProt O43663 1-620, looked up)
chain: MRRSEVLAEESIVCLQKALNHLREIWELIGIPEDQRLQRTEVVKKHIKELLDMMIAEEESLKERLIKSISVCQKELNTLCSELHVEPFQEEGETTILQLEKDLRTQVELMRKQKKERKQELKLLQEQDQELCEILCMPHYDIDSASVPSLEELNQFRQHVTTLRETKASRREEFVSIKRQIILCMEALDHTPDTSFERDVVCEDEDAFCLSLENIATLQKLLRQLEMQKSQNEAVCEGLRTQIRELWDRLQIPEEEREAVATIMSGSKAKVRKALQLEVDRLEELKMQNMKKVIEAIRVELVQYWDQCFYSQEQRQAFAPFCAEDYTESLLQLHDAEIVRLKNYYEVHKELFEGVQKWEETWRLFLEFERKASDPNRFTNRGGNLLKEEKQRAKLQKMLPKLEEELKARIELWEQEHSKAFMVNGQKFMEYVAEQWEMHRLEKERAKQERQLKNKKQTETEMLYGSAPRTPSKRRGLAPNTPGKARKLNTTTMSNATANSSIRPIFGGTVYHSPVSRLPPSGSKPVAASTCSGKKTPRTGRHGANKENLELNGSILSGGYPGSAPLQRNFSINSVASTYSEFAKDPSLSDSSTVGLQRELSKASKSDATSGILNSTNIQS
For B1, the binding result in assay [1] was “binds”.

B2: PRC1ΔN2SΔC (human PRC1, aa 41-486) (domain or fragment, UniProt O43663 41-486, looked up)
chain: EVVKKHIKELLDMMIAEEESLKERLIKSISVCQKELNTLCSELHVEPFQEEGETTILQLEKDLRTQVELMRKQKKERKQELKLLQEQDQELCEILCMPHYDIDSASVPSLEELNQFRQHVTTLRETKASRREEFVSIKRQIILCMEALDHTPDTSFERDVVCEDEDAFCLSLENIATLQKLLRQLEMQKSQNEAVCEGLRTQIRELWDRLQIPEEEREAVATIMSGSKAKVRKALQLEVDRLEELKMQNMKKVIEAIRVELVQYWDQCFYSQEQRQAFAPFCAEDYTESLLQLHDAEIVRLKNYYEVHKELFEGVQKWEETWRLFLEFERKASDPNRFTNRGGNLLKEEKQRAKLQKMLPKLEEELKARIELWEQEHSKAFMVNGQKFMEYVAEQWEMHRLEKERAKQERQLKNKKQTETEMLYGSAPRTPSKRRGLAPNTPGKAR
For orientation: Kd means the equilibrium constant for the complex coming apart. A higher Kd goes with a looser complex. For the molecule B2, the Kd in assay [2] worked out at 1600 ± 110 nM.

B3: PRC1NSΔC4 (human PRC1, aa 1-231) (domain or fragment, UniProt O43663 1-231, looked up)
chain: MRRSEVLAEESIVCLQKALNHLREIWELIGIPEDQRLQRTEVVKKHIKELLDMMIAEEESLKERLIKSISVCQKELNTLCSELHVEPFQEEGETTILQLEKDLRTQVELMRKQKKERKQELKLLQEQDQELCEILCMPHYDIDSASVPSLEELNQFRQHVTTLRETKASRREEFVSIKRQIILCMEALDHTPDTSFERDVVCEDEDAFCLSLENIATLQKLLRQLEMQKSQ
Take B3: in assay [2], binding was characterised by a dissociation constant (Kd) of 300 ± 40 nM.

B4: PRC1NSΔC2 (human PRC1, aa 1-117) (domain or fragment, UniProt O43663 1-117, looked up)
chain: MRRSEVLAEESIVCLQKALNHLREIWELIGIPEDQRLQRTEVVKKHIKELLDMMIAEEESLKERLIKSISVCQKELNTLCSELHVEPFQEEGETTILQLEKDLRTQVELMRKQKKER
B4 displayed a dissociation constant Kd in assay [2] of 2300 ± 600 nM.

B5: PRC1NSΔC (human PRC1, aa 1-486) (domain or fragment, UniProt O43663 1-486, looked up)
chain: MRRSEVLAEESIVCLQKALNHLREIWELIGIPEDQRLQRTEVVKKHIKELLDMMIAEEESLKERLIKSISVCQKELNTLCSELHVEPFQEEGETTILQLEKDLRTQVELMRKQKKERKQELKLLQEQDQELCEILCMPHYDIDSASVPSLEELNQFRQHVTTLRETKASRREEFVSIKRQIILCMEALDHTPDTSFERDVVCEDEDAFCLSLENIATLQKLLRQLEMQKSQNEAVCEGLRTQIRELWDRLQIPEEEREAVATIMSGSKAKVRKALQLEVDRLEELKMQNMKKVIEAIRVELVQYWDQCFYSQEQRQAFAPFCAEDYTESLLQLHDAEIVRLKNYYEVHKELFEGVQKWEETWRLFLEFERKASDPNRFTNRGGNLLKEEKQRAKLQKMLPKLEEELKARIELWEQEHSKAFMVNGQKFMEYVAEQWEMHRLEKERAKQERQLKNKKQTETEMLYGSAPRTPSKRRGLAPNTPGKAR
In assay [2], B5 yielded a Kd of 300 ± 30 nM.

B6: kinesin-4-GFP (human full-length kinesin-4, GFP-labeled), O95239 1-1232 (natural protein)
chain: T1 sequence (looked up)
As a reminder, the stoichiometry N is a count of units in the complex or per binding partner. B6: in assay [3], the stoichiometry N worked out at 2.

B7: PRC1NSΔC5 (human PRC1, aa 1-303) (domain or fragment, UniProt O43663 1-303, looked up)
chain: MRRSEVLAEESIVCLQKALNHLREIWELIGIPEDQRLQRTEVVKKHIKELLDMMIAEEESLKERLIKSISVCQKELNTLCSELHVEPFQEEGETTILQLEKDLRTQVELMRKQKKERKQELKLLQEQDQELCEILCMPHYDIDSASVPSLEELNQFRQHVTTLRETKASRREEFVSIKRQIILCMEALDHTPDTSFERDVVCEDEDAFCLSLENIATLQKLLRQLEMQKSQNEAVCEGLRTQIRELWDRLQIPEEEREAVATIMSGSKAKVRKALQLEVDRLEELKMQNMKKVIEAIRVELVQ
As to B7, the Kd in assay [2] turned out to be 300 ± 60 nM.

B8: PRC1NSΔC3 (human PRC1, aa 1-168) (domain or fragment, UniProt O43663 1-168, looked up)
chain: MRRSEVLAEESIVCLQKALNHLREIWELIGIPEDQRLQRTEVVKKHIKELLDMMIAEEESLKERLIKSISVCQKELNTLCSELHVEPFQEEGETTILQLEKDLRTQVELMRKQKKERKQELKLLQEQDQELCEILCMPHYDIDSASVPSLEELNQFRQHVTTLRETKA
B8 showed a dissociation constant Kd in assay [2] of 1200 ± 400 nM.
